# What was measured:
# neutrophils = assay: Transwell chemotaxis assay; type: cell-based, human
# Experimental: The cells migration after IL-17 (10-500 ng/ml), FM-0410 (10-500 ng/ml) or N-Formylmethionine-leucyl-phenylalanine (fmlp; 10^−6 M) treatment was quantified using CountBright™ Absolute Counting Beads. Data were presented as means±S.D. of n=3 healthy donors. Statistical analysis was conducted by one-way ANOVA followed by Bonferroni's for multiple comparisons. ^#P≤0.05, ^##P≤0.01, ^###P≤0.001, ^####P≤0.0001 vs Ctrl group; ^+P≤0.05 vs IL-17. Neutrophil isolation: Blood was taken according to local research ethics committee approval (QMERC2014/61). Informed consent was provided according to the Declaration of Helsinki. All blood samples were collected on the day of experiments from healthy donors and immediately used. Each condition has 3 biological replicates (3 different donors). Neutrophils were isolated using a double density histopaque gradient and hypotonic lysis as described previously. Transwell chemotaxis assay: Chemotaxis was assessed using a transwell assay. […] After 2 hours at 37° C., neutrophils were collected from the bottom wells and quantified by flow cytometry using CountBright™ Absolute Counting Beads (Thermofisher, Rugby, UK) as previously described.
# [1] = test system: Human dermal blood endothelial cells (HDBEC); assay: HDBEC stimulation (flow cytometry, IL-6 Elisa); type: cell-based; conditions: 100 ng/ml in combination with TNF-α (100 U/ml), 24 h
# Experimental: FIG. 10: Human dermal blood endothelial cells (HDBEC) were treated with: IL-17 vehicle (Ctrl), IL-17 or FM-0410 (100 ng/ml), alone or in combination with TNF-α (100 U/ml) for 24 h. Cells were washed, gated in their totality and singlet before the identification of IL-17Rs (RA and RC) (A, B), ICAM (C) and VCAM (D) expression. Histogram values (expressed as MIF) indicate the total positive cells (A-D). In (E) are shown phase-contrast micrographs of confluent monolayers of untreated or treated (as reported before) HDBEC. Total adhesion (expressed as INT/mm^2, F) and % of transmigration (G) are calculated with Image Pro programme (DataCell, Finchampstead). Inflammatory supernatants from all experimental conditions were assayed by Elisa for IL-6 (H) expressed in pg/ml. Data were presented as means±S.D. of n=3 healthy donors. Statistical analysis was conducted by one-way ANOVA followed by Bonferroni's for multiple comparisons. ^#P≤0.05, ^##P≤0.01, ^###P≤0.001, ^####P≤0.0001 vs Ctrl group; *P≤0.05 vs TNF-α+IL-17 group; ^∘P≤0.05, ^∘∘∘P≤0.001, ^∘∘∘∘P≤0.0001 vs TNF-α group.
# Human dermal blood endothelial cells (HDBEC): Primary human dermal blood endothelial cells (HDBECs) were purchased from PromoCell and cultured in the manufacturer's recommended endothelial cell growth medium MV (PromoCell, Heidelberg, Germany). HDBECs were seeded onto 12-well tissue culture plates after 4 passages at a seeding density yielding confluent monolayers. HDBEC monolayers were washed in endothelial cell growth medium MV warmed to 37° C. and stimulated with IL-17 or FM-0410 (100 ng/ml) alone or in a combination with TNF-α (100 U/ml) for 24 h at 37° C. Cells were stimulated for 24 h, before staining with IL-17Rs (RA or RC) or ICAM/VCAM adhesion receptors using a Flow cytometry assay. Supernatants were collected and measured to evaluate IL-6 or TNF-α levels.
# Flow Cytometry: HDBEC, collected after 24 h of treatment, were washed with PBS without Ca^2+ and Mg^2+ containing 25 mM lactose for 20 min at room temperature with occasional mixing. […] Protein expression was analysed by flow cytometry on a Dako CyAn (Beckman Coulter, High Wycombe, U.K.), and data were analysed using MRFIow and FlowJo software operation. The unspecific binding of antibodies was quantified by using corresponding isotype controls.
# Elisa assay: The levels of IL-6 at 24 h were measured using commercially available enzyme-linked immunosorbent assay kits (ELISA kit, R&D System, Milan, Italy) according to the manufacturer's instructions. […] The addition of 100 μl of the substrate and stop solution represented the last steps before the reading of absorbance (measured at 450 nm) on a microplate reader. Antigen levels in the samples were determined using a standard curve and expressed as pg/ml.
# dorsal air pouch of mice = conditions: single administration 1 μg/pouch into 6-day old air pouch; previous studies; cited from earlier work
# IL-17RA = IL-17RA (Homo sapiens, UniProt Q96F46); conditions: cited from earlier work
molecule,measurement,setting,value
"IL-17: recombinant mouse IL-17 purchased from R&D System; full-length cytokine used as comparator and stimulus (protein, UniProt Q62386 26-158, looked up) Interleukin-17A: AAIIPQSSACPNTEAKDFLQNVKVNLKVFNSLGAKVSSRRPSDYLNRSTSPWTLHRNEDPDRYPSVIWEAQCRHQRCVNAEGKLDHHMNSVLIQQEILVLKREPESCPFTFRVEKMLVGVGCTCVASIVRQAA",chemotactic activity compared to positive control fmlp (10^−6 M),neutrophils; 500 ng/ml,almost similar to positive control fmlp
same,chemotactic effect on neutrophils,"neutrophils; 10-500 ng/ml, vs Control group",concentration-dependent chemotactic effect
same,ICAM expression,[1],upregulation
same,IL-17RA receptor expression,[1],No effects
same,IL-17RC receptor expression,[1],No effects
same,VCAM expression,[1],upregulation
same,time of peak of leukocyte infiltration,dorsal air pouch of mice,24 h
same,affinity of IL-17RA for IL-17A compared to IL-17F,IL-17RA,~100 fold
